Biological target: T1, GST-SMRT (Hu SMRT(1-900) fused to GST, from pGEX-6p-1) (human, UniProt Q9Y618 1-900)
T1 construct: range 1-900; Expressed in bacteria with IPTG and adsorbed onto glutathione sepharose 4B; also called GST-SMRT agarose; immobilized SMRT; not shown: glutathione S-transferase of the pGEX-6p-1 bacterial expression vector
Test: GST pull-down of 35S-labeled in vitro translated C21 fragment
Description: FIGS. 15A and 15B show GST-pull-down of in vitro synthesized C21 by SMRT (1-900). Hu SMRT(1-900) cDNA was amplified by PCR and cloned in-frame into pGEX-6p-1 (GST fusion expression vector for bacterial expression). Expression of the GST fusion protein (FIG. 15A) or control (FIG. 15B) was induced with IPTG and the product adsorbed onto glutathione sepharose 4B. hC21 (full-length ORF or fragments lacking the C-terminal half(δ C), the F-box (δ F), the N terminal 40 amino acid (δ N) or a construct lacking both the N-terminus and the F-box (δN+F) was cloned in-frame into pCDNA3 vector with a Flag tag at the N-terminus. The plasmid, linearized with EcoRI, was purified and used as a template to label the product. For the pull-down experiments, 5 ng of ³⁵S-labeled hC21 protein(s) and 20 ul of GST agarose or GST-SMRT agarose were mixed. All four C21 constructs labeled with equal efficiency and the same quantity of labeled protein were used in each experiment. The denatured proteins were then electrophoresed through a 10% SDS PAGE gel.
Labeled C21 prepared by in vitro translation using 35S methionine can be “pulled-down” by immobilized SMRT. […] A fragment (21[δC]) consisting only of the first 230 amino acids (i.e., lacking all of the WD40 repeats and the carboxyl terminus) was as efficient as the full-length protein in reacting with SMRT.

T1 sequence (Q9Y618 1-900): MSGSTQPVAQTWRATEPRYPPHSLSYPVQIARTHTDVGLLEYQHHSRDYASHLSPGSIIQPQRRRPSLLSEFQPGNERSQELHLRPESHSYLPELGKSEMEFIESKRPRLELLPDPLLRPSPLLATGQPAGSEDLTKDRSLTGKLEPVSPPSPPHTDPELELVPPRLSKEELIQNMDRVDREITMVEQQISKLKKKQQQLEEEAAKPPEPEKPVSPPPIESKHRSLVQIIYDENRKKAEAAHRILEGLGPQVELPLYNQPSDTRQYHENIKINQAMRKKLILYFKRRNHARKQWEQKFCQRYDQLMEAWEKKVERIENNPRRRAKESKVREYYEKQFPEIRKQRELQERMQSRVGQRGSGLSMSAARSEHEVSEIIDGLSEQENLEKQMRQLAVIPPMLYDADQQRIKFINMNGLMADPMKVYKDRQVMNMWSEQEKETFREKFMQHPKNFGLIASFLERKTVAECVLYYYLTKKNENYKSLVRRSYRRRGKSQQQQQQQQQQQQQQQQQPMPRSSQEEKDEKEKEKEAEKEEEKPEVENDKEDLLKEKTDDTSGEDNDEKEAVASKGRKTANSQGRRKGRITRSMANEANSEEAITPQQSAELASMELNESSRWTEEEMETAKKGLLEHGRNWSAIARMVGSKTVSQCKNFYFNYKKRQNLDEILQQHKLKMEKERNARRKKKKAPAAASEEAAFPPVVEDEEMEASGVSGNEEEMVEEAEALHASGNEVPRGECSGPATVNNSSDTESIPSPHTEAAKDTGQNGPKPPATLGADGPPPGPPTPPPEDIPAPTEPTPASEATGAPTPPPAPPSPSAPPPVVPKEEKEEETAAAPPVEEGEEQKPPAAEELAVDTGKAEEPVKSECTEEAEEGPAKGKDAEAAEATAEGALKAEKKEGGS

binding result: no binding
B1: 21[5N] (other)
chain: GALVPPAALISIIQKGLQYVEAEVSINEDGTLFDGRPIESLSLIDAVMPDVVQTRQQAYRDKLAQQQAAAAAAAAAAASQQGSAKNGENTANGEENGAHTIANNHTDMMEVDGDVEIPPNKAVVLRGHESEVFICAWNPVSDLLASGSGDSTARIWNLSENSTSGSTQLVLRHCIREGGQDVPSNKDVTSLDWNSEGTLLATGSYDGFARIWTKDGNLASTLGQHKGPIFALKWNKKGNFILSAGVDKTTIIWDAHTGEAKQQFPFHSAPALDVDWQSNNTFASCSTDMCIHVCKLGQDRPIKTFQGHTNEVNAIKWDPTGNLLASCSDDMTLKIWSMKQDNCVHDLQQHNKEIYTIKWSPTGPGTNNPNANLMLASASFDSTVRLWDVDRGICIHTLTKHQEPVYSVAFSPDGRYLASGSFDKCVHIWNTQTGALVHSYRGTGGIFEVCWNAAGDKVGASASDGSVCVLDLRK
modifications: 35S-methionine label
notes: also called δ N; hC21 fragment lacking the N terminal 40 amino acid; not shown: Flag tag at the N-terminus

From patent US20050119456A1 (NEW YORK UNIVERSITY, published 2005)
